In assay [1] the target is γ-globulin formulation (KAKETSUKEN) that was a human antibody (human). The assay is described as follows: batch adsorption: 0.5 mL of 10 mg/mL IgG on 0.1 mL FcRm19-immobilised gel, PBS pH 7.0, eluted at pH 3.0, A280.
For assay [2] the target is unchanged. The assay is described as follows: batch adsorption: 0.5 mL of 10 mg/mL IgG on 0.1 mL FcRm19-immobilised gel (23.0 mg FcRm19 per mL gel), PBS pH 7.0, eluted at pH 3.0, A280.
Assay [3] shares this target. The assay can be described thus: column of FcRm19-immobilised gel loaded with IgG in PBS pH 7.0; eluted with 100 mM citric acid buffer of the given pH; R=A/(A+B)x100, A280.
The target is the same in assay [4]. The assay can be described thus: ELISA: human γ-globulin coated 1 µg/well, culture supernatant diluted 5x, HRP anti-His-Tag detection. Background: ELISA stands for enzyme-linked immunosorbent assay.
The target is the same in assay [5]. The assay is described as above. This is another data set of the same source.
The target is the same in assay [6]. The assay is described as follows: batch adsorption: 3.0 mL of 10 mg/mL IgG on 0.5 mL FcRm56b-immobilised gel, PBS pH 7.0, eluted at pH 3.0, A280.
Assay [7] has the same target. The assay can be described thus: batch adsorption: 3.0 mL of 10 mg/mL IgG on 0.5 mL FcRm56b-immobilised gel (18.7 mg FcRm56b per mL gel), PBS pH 7.0, eluted at pH 3.0, A280.
For assay [8] the target is unchanged. The assay is described as follows: column of FcRm56b-immobilised gel loaded with IgG in PBS pH 7.0; eluted with 100 mM citric acid buffer of the given pH; R=A/(A+B)x100, A280.
Assay [9] has the same target. The assay can be described thus: batch adsorption: 3.0 mL of 10 mg/mL IgG on 0.4 mL FcRm57b-immobilised gel, PBS pH 7.0, eluted at pH 3.0, A280.
Assay [10] shares this target. The assay can be described thus: batch adsorption: 3.0 mL of 10 mg/mL IgG on 0.4 mL FcRm57b-immobilised gel (14.2 mg FcRm57b per mL gel), PBS pH 7.0, eluted at pH 3.0, A280.
The target is the same in assay [11]. The assay can be described thus: column of FcRm57b-immobilised gel loaded with IgG in PBS pH 7.0; eluted with 100 mM citric acid buffer of the given pH; R=A/(A+B)x100, A280.
Assay [12] has the same target. The assay is described as follows: batch adsorption: 0.5 mL of 10 mg/mL IgG on 0.05 mL FcRm48-immobilised gel, PBS pH 7.0, eluted at pH 3.0, A280.
For assay [13] the target is unchanged. The assay can be described thus: batch adsorption: 0.5 mL of 10 mg/mL IgG on 0.05 mL FcRm48-immobilised gel (13.6 mg FcRm48 per mL gel), PBS pH 7.0, eluted at pH 3.0, A280.
For assay [14] the target is unchanged. The assay can be described thus: column of FcRm48-immobilised gel loaded with IgG in PBS pH 7.0; eluted with 100 mM citric acid buffer of the given pH; R=A/(A+B)x100, A280.
The target is the same in assay [15]. The assay is described as follows: batch adsorption: 0.5 mL of 10 mg/mL IgG on 0.1 mL FcRm32-immobilised gel, PBS pH 7.0, eluted at pH 3.0, A280.
For assay [16] the target is unchanged. The assay can be described thus: batch adsorption: 0.5 mL of 10 mg/mL IgG on 0.1 mL FcRm32-immobilised gel (19.3 mg FcRm32 per mL gel), PBS pH 7.0, eluted at pH 3.0, A280.
Assay [17] shares this target. The assay can be described thus: column of FcRm32-immobilised gel loaded with IgG in PBS pH 7.0; eluted with 100 mM citric acid buffer of the given pH; R=A/(A+B)x100, A280.
Assay [18] has the same target. The assay can be described thus: batch adsorption: 0.5 mL of 10 mg/mL IgG on 0.05 mL FcRm36b-immobilised gel, PBS pH 7.0, eluted at pH 3.0, A280.
Assay [19] shares this target. The assay is described as follows: column of FcRm36b-immobilised gel loaded with IgG in PBS pH 7.0; eluted with 100 mM citric acid buffer of the given pH; R=A/(A+B)x100, A280.
Assay [20] shares this target. The assay can be described thus: batch adsorption: 0.5 mL of 10 mg/mL IgG on 0.05 mL FcRm36b-immobilised gel (21.0 mg FcRm36b per mL gel), PBS pH 7.0, eluted at pH 3.0, A280.

The record followed here is patent US20130079499A1.

Read-outs that look alike come from different tables or passages of the source.

B1: Fc binding protein FcRm19 (19 amino acids of a wild-type Fc binding protein substituted) (receptor)
chain: KIEEAMGQVDTPKAVIKLQPPWVSVFQEESVTLHCEVPHLPGSSSTQWFLNGTAIQTSTPTYHITSASEDDSGEYRCQRGLSGRSDPIQLEVHRGWLLLQVSSRVLTEGEPLALRCHAWKDKLVYNVLYYRNGKAFKFFHWNSNLTILKTNMSHSGTYHCSGMGKHRYTSAGISVTVKELFPAPVLTASVTSPLLEGTPVTLSCETKLLLQRPGLQLYFSFYMGSKTLRGRDTSSEYQILTARREDSGLYWCEAATEDGNVLKRSPELELQVLGHQQPTPVHHHHHH
For the molecule B1, in assay [1], the amount of the eluted IgG was found to be 2.1 mg. This molecule came in with an amount of adsorbed IgG per mL of the gel (mg per mL of gel) in assay [2] of 21. Moreover, in assay [3], the percentage of antibody elution at pH 3.0 stood at 99.1%, the percentage of antibody elution at pH 3.4 turned out to be 87.4%, the percentage of antibody elution at pH 3.8 is 51.3% and the percentage of antibody elution at pH 4.2 came to 22%.

B2: wild-type Fc binding protein (Fc binding protein with no amino acid substitution) expressed by the pETFcR transformant (receptor)
chain: KIEEAMGQVDTTKAVITLQPPWVSVFQEETVTLHCEVLHLPGSSSTQWFLNGTATQTSTPSYRITSASVNDSGEYRCQRGLSGRSDPIQLEIHRGWLLLQVSSRVFTEGEPLALRCHAWKDKLVYNVLYYRNGKAFKFFHWNSNLTILKTNISHNGTYHCSGMGKHRYTSAGISVTVKELFPAPVLNASVTSPLLEGNLVTLSCETKLLLQRPGLQLYFSFYMGSKTLRGRNTSSEYQILTARREDSGLYWCEAATEDGNVLKRSPELELQVLGLQLPTPVHHHHHH
In the case of B2, the OD450 nm was found to be 0.22 OD450 nm in assay [4] and 0.14 OD450 nm in [5].

B3: Fc binding protein FcRm56b (56 amino acids of a wild-type Fc binding protein substituted) (receptor)
chain: KIEEAMGQVDTPKAVIKLQPPWVSVFLGESVTMLCEVPHLSGAGSTQWFRNDTAIQASTPTYHIASASEDDSGEYRCQRGLSGRSDPILLEVHRGWLLLQVSARVLIEGEPLVLRCHAWRDKQVHNVLFYHNGKAFKFFHRNTTLTIPRTNTSHSGTYHCSGMGRHRYTSAGTLVSVKELFPAPVLTASVASPLHEGTQVTLSCVTKLLIQRPGLQLYFSFYKGSETLRGRDTSSEYQILAARREDSGLYWCEAATEDGNVVKRSPELELQVLGHQQPTPVHHHHHH
Turning to B3, in assay [6], the amount of eluted IgG was found to be 11.5 mg. This molecule also came in with an amount of adsorbed IgG per mL of the gel (mg per mL of gel) in assay [7] of 23. In assay [8], the percentage of antibody elution at pH 3.0 was 99.7%, the percentage of antibody elution at pH 3.4 was determined as 99.5%, the percentage of antibody elution at pH 3.8 stood at 94.5% and the percentage of antibody elution at pH 4.2 was 73%.

B4: Fc binding protein FcRm57b (57 amino acids of a wild-type Fc binding protein substituted) (receptor)
chain: KIEEAMGQVDTPKAVIKLQPPWVSVFLGESVTMLCEVPHLSGAGSTQWFRNDTAIQASTPTFHIASASEDDSGEYRCQRGLSGRSDPILLEVHRGWLLLQVSARVLIEGEPLVLRCHAWRDKLVHNVLFYHNGKAFKFFHRNTTLTIPRTNTSHSGTYHCSGMGRHRYTSAGTLVSVKELFPAPVLTASVASPLLEGTPVTLSCVTKLLIQRPGLQLYFSFFKGGETLRGRDTSSEYQILAARREDSGLYWCEAATEDGNVVKRSPELELQVLGHQQPTPVHHHHHH
Molecule B4 registered an amount of eluted IgG in [9] of 6.67 mg. In assay [10], this molecule returned an amount of adsorbed IgG per mL of the gel (mg per mL of gel) of 16.7. Moreover, in [11], the percentage of antibody elution at pH 3.0 worked out at 99.3%, the percentage of antibody elution at pH 3.4 worked out at 99.6%, the percentage of antibody elution at pH 3.8 was 90.2% and the percentage of antibody elution at pH 4.2 was 66.2%.

B5: Fc binding protein FcRm48 (48 amino acids of a wild-type Fc binding protein substituted) (receptor)
chain: KIEEAMGQVDTPKAVIKLQPPWVSVFLGESVTMHCEAPHLSGTGSTQWFLNDTAIQASTPTYHITSASEDDSGEYRCQRGLSGRSDPILLEVHRGWLLLQVSSRVLTEGEPLALRCHAWRDKQVHNVLFYHNGKAFKFFHRNSTLTIPRTNTSHSGTYHCSGMGRHRYTSAGTLVSVKELFPAPVLTASVTSPLHEGTQVTLSCVTKLLIQRPGLQLYFSFYKGSKTLRGRDTSSEYQILAARREDSGLYWCVAATEDGNVLKRSPELELQVLGHQQPTPVHHHHHH
B5 gave an amount of eluted IgG in assay [12] of 0.94 mg. Also, in [13], the amount of adsorbed IgG per mL of the gel (mg per mL of gel) is 18.8. In assay [14], this molecule returned a percentage of antibody elution at pH 3.0 of 99.2%, a percentage of antibody elution at pH 3.4 of 100%, a percentage of antibody elution at pH 3.8 of 98.2% and a percentage of antibody elution at pH 4.2 of 81.9%.

B6: Fc binding protein FcRm32 (32 amino acids of a wild-type Fc binding protein substituted) (receptor)
chain: KIEEAMGQVDTPKAVIKLQPPWVSVFQGESVTLHCEAPHLSGSSSTQWFLNDTAIQASTPTYHITSASEDDSGEYRCQRGLSGRSDPIQLEVHRGWLLLQVSSRVLTEGEPLALRCHAWKDKLVHNVLYYHNGKAFKFFHRNSNLTIPKTNTSHSGTYHCSGMGRHRYTSAGTSVTVKELFPAPVLTASVTSPLHEGTQVTLSCETKLLLQRPGLQLYFSFYKGSKTLRGRDTSSEYQILTARREDSGLYWCEAATEDGNVLKRSPELELQVLGHQQPTPVHHHHHH
In assay [15], B6 had an amount of eluted IgG of 1.98 mg. In addition, in assay [16], the amount of adsorbed IgG per mL of the gel (mg per mL of gel) came to 19.8. In assay [17], this molecule gave a percentage of antibody elution at pH 3.0 of 98.7%, a percentage of antibody elution at pH 3.4 of 99.3%, a percentage of antibody elution at pH 3.8 of 97.9% and a percentage of antibody elution at pH 4.2 of 82.8%.

B7: Fc binding protein FcRm36b (36 amino acids of a wild-type Fc binding protein substituted) (receptor)
chain: KIEEAMGQVDTPKAVIKLQPPWVSVFLGESVTMHCEAPHLSGSGSTQWFLNDTAIQASTPTYHITSASEDDSGEYRCQRGLSGRSDPIQLEVHRGWLLLQVSSRVLTEGEPLALRCHAWKDKLVHNVLYYHNGKAFKFFHRNSTLTIPKTNTSHSGTYHCSGMGRHRYTSAGTSVTVKELFPAPVLTASVTSPLHEGTQVTLSCETKLLLQRPGLQLYFSFYKGSKTLRGRDTSSEYQILTARREDSGLYWCEAATEDGNVLKRSPELELQVLGHQQPTPVHHHHHH
B7 showed an amount of eluted IgG in assay [18] of 1.44 mg. Also, in assay [19], the percentage of antibody elution at pH 3.0 is 99.5%, the percentage of antibody elution at pH 3.4 was determined as 99.4%, the percentage of antibody elution at pH 3.8 was 92.2% and the percentage of antibody elution at pH 4.2 was determined as 64%. Besides, in [20], the amount of adsorbed IgG per mL of the gel (mg per mL of gel) amounted to 28.8.
